Results: patent US5792457A, “Antibody recognizing endothelial cell ligand for leukocyte CR3” (priority 1995, dated 1998)

Assay: Overlay on thin-layer chromatography plates containing glycolipids
Type: binding
Text: 2) The DNA sequence from nucleotide position 3674 to 4088 (bounded by XhoI sites) which corresponds to the CRD was amplified by the polymerase chain reaction and ligated into one of the pET expression vectors (Rosenberg et al. (1987), Gene 56, 125-135). Expression of the polypeptide in E. coli utilized the T7 RNA polymerase promoter system (Tabor, S. & Richardson, C.C. (1985), Proc. Natl. Acad. Sci. U.S.A. 82). [^35 S] […] Cell lysates containing the expressed protein were overlaid on thin-layer chromatography plates containing glycolipid standards and the binding pattern was compared to that of FHA.

B1: CRD protein: expressed polypeptide of FHA carbohydrate recognition domain, residues 1141-1279, 18kD (protein, UniProt P12255 1141-1279, looked up, fragment)
chain: LEHSTIESKISQSVLAAKGDKGKPAVSVKVAKKLFLNGTLRAVNDNNETMSGRQIDVVDGRPQITDAVTGEARKDESVVSDAALVADGGPIVVEAGELVSHAGGIGNGRNKENGASVTVRTTGNLVNKGYISAGKQGVL
- binding to lactosylceramides (in words): bound to these carbohydrates in a pattern similar to FHA, especially in the ability to bind to lactosylceramides
